# Results published in article PMC10104839, “Structural basis for sequence-specific recognition of guide and target strands by the Archaeoglobus fulgidus Argonaute protein” (Scientific Reports, 2023).
# T1: AfAgo (Archaeoglobus fulgidus DSM 4304, UniProt O28951 1-427)
# T1 sequence: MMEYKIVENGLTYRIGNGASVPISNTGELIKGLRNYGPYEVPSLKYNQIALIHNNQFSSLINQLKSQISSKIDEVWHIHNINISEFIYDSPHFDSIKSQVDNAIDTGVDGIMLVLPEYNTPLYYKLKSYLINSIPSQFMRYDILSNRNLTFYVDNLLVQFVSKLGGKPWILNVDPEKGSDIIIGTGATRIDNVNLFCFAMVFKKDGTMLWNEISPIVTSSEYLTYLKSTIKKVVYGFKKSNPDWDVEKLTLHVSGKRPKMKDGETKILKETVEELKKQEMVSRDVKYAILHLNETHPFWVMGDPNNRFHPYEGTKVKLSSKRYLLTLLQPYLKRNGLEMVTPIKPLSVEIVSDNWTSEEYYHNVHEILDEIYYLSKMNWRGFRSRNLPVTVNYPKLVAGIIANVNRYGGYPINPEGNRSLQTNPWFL
# B1: Archaeoglobus fulgidus Argonaute protein (AfAgo) (natural protein, Archaeoglobus fulgidus DSM 4304)
# chain: T1 sequence
# notes: AfAgo, hypothetical protein from Archaeoglobus fulgidus DSM 4304, GenBank NP_070147.1, cloned in pETDuet-1; also called AfPIWI; Af1318; source: E. coli, purified (Ni2+ HiTrap chelating, RNase A/T1 treatment, HiTrap Heparin, Superdex 200)
# B2: MZ-1289 5'-ATT oligoduplex (dsDNA)
# DNA 1: ATTGTACGTACAAT
# DNA 2: ATTGTACGTACAAT
# modifications: 5'-phosphate
# B3: MZ-1288 5'-ATT oligoduplex (dsDNA)
# DNA 1: ATTGTGGCCACAAT
# DNA 2: ATTGTGGCCACAAT
# modifications: 5'-phosphate
# B4: MZ-1480/MZ-1455 RNA/DNA heteroduplex (DNA:RNA)
# RNA: AUUGUACACGGCCGAAU
# DNA: ATTCGGCCGTGTACAAT
# modifications: 5'-phosphate
# B5: gRNA MZ-1480 + target DNA MZ-1560 (8 nt) (DNA:RNA)
# RNA: AUUGUACACGGCCGAAU
# DNA: CGGAATATATGTACAAT
# modifications: 5'-phosphate
# B6: MZ-1447/MZ-1455 dsDNA (dsDNA)
# DNA 1: ATTGTACACGGCCGAAT
# DNA 2: ATTCGGCCGTGTACAAT
# modifications: 5'-phosphate
# B7: MZ-952 5'-ATC oligoduplex (dsDNA)
# DNA 1: ATCGTGGCCACGAT
# DNA 2: ATCGTGGCCACGAT
# modifications: 5'-phosphate
# B8: gRNA MZ-1480 + target RNA MZ-1556 (8 nt) (dsRNA)
# RNA 1: AUUGUACACGGCCGAAU
# RNA 2: CGGAAUAUAUGUACAAU
# modifications: 5'-phosphate
# B9: MZ-1480/MZ-1481 dsRNA (dsRNA)
# RNA 1: AUUGUACACGGCCGAAU
# RNA 2: AUUCGGCCGUGUACAAU
# modifications: 5'-phosphate
# Key:
# [1] = target: T1, AfAgo; assay: EMSA; EMSA: 40 mM Tris-acetate pH 8.4 (25 C), 1 mM EDTA, 100 mM K-acetate, 0.1 mg/ml BSA, 1 mM DTT, 10% glycerol; 5 nM NA (1 nM 32P + 4 nM cold); 10 min at 25 C; conditions: protein: recombinant; tags: N-terminal His (HisTrap; construct name NHis-Af1318); label: 5'-32P
# [2] = target: the molecule itself; assay: crystal structure; AfAgo-DNA oligoduplex complexes, 90-120 uM (as monomer), crystals grown at 4-8 °C; P1 crystals (5'P-ATC DNA) hold two DNA-bound subunits per asymmetric unit; in the P22(1)2(1) crystals (5'P-ATT DNA) the dimer is formed by a crystallographic symmetry operator
# [3] = target: T1, AfAgo; assay: X-ray crystallography; 5 mM Mg2+ in complex preparation; EMSA: 40 mM Tris-acetate pH 8.4 (25 C), 1 mM EDTA, 100 mM K-acetate, 0.1 mg/ml BSA, 1 mM DTT, 10% glycerol; 5 nM NA (1 nM 32P + 4 nM cold); 10 min at 25 C; conditions: protein: recombinant; tags: N-terminal His (HisTrap; construct name NHis-Af1318); blunt, self-complementary, 2 strand copies
# [4] = target: T1, AfAgo; assay: X-ray crystallography; Mg2+; EMSA: 40 mM Tris-acetate pH 8.4 (25 C), 1 mM EDTA, 100 mM K-acetate, 0.1 mg/ml BSA, 1 mM DTT, 10% glycerol; 5 nM NA (1 nM 32P + 4 nM cold); 10 min at 25 C; conditions: protein: recombinant; tags: N-terminal His (HisTrap; construct name NHis-Af1318); blunt, self-complementary, 2 strand copies
# [5] = target: T1, AfAgo; assay: EMSA; pre-formed duplex; EMSA: 40 mM Tris-acetate pH 8.4 (25 C), 1 mM EDTA, 100 mM K-acetate, 0.1 mg/ml BSA, 1 mM DTT, 10% glycerol; 5 nM NA (1 nM 32P + 4 nM cold); 10 min at 25 C; conditions: protein: recombinant; tags: N-terminal His (HisTrap; construct name NHis-Af1318); label: 5'-32P; blunt
# [6] = target: T1, AfAgo; assay: EMSA; AfAgo pre-loaded with gRNA (1:2), target titrated; no heparin; EMSA: 40 mM Tris-acetate pH 8.4 (25 C), 1 mM EDTA, 100 mM K-acetate, 0.1 mg/ml BSA, 1 mM DTT, 10% glycerol; 5 nM NA (1 nM 32P + 4 nM cold); 10 min at 25 C; conditions: protein: recombinant; tags: N-terminal His (HisTrap; construct name NHis-Af1318); label: 5'-32P on target; guide nt 1-8 complementary to target 3' end; rest largely unpaired
binder,measurement,setting,value
"AGUGUACACGGCCGACU (ssRNA, 5'-phosphate) [MZ-1707 AGU ssRNA]",Kd,[1],84 ± 2.9 nM
B1,binding result,[2],binds
"AUCGUACACGGCCGGAU (ssRNA, 5'-phosphate) [MZ-1706 AUC ssRNA]",Kd,[1],16 ± 2.1 nM
B2,binding result,[3],binds
B3,binding result,[4],binds
"CUUGUACACGGCCGAAG (ssRNA, 5'-phosphate) [MZ-1708 CUU ssRNA]",Kd,[1],28 ± 2.7 nM
B4,Kd,[5],6.1 ± 0.04 nM
B5,Kd,[6],7.5 ± 0.4 nM
B6,Kd,[5],37 ± 17 nM
B7,binding result,[3],binds
"AUUGUACACGGCCGAAU (ssRNA, 5'-phosphate) [MZ-1480 5'P-AUU ssRNA]",Kd,[1],3.8 ± 0.1 nM
"GUUGUACACGGCCGAAC (ssRNA, 5'-phosphate) [MZ-1698 GUU ssRNA]",Kd,[1],42 ± 2.1 nM
"ATTGTACACGGCCGAAT (ssDNA, 5'-phosphate) [MZ-1447 ATT ssDNA]",Kd,[1],236 ± 35 nM
B8,Kd,[6],33 ± 4.2 nM
B9,Kd,[5],15 ± 0.9 nM
"UUUGUACACGGCCGAAA (ssRNA, 5'-phosphate) [MZ-1699 UUU ssRNA]",Kd,[1],15 ± 2.8 nM
